{"source": "patent US20240168030A1", "about": "“DIRECT FLUORESCENT GLYCAN LABELING” (BIO-TECHNE CORPORATION, priority 2019, published 2024)", "molecules": {"B1": {"name": "B3GalT2: galactosyltransferase used for galactosylation in Le^a synthesis (protein, UniProt O43825 1-422, looked up)", "Beta-1,3-galactosyltransferase …": "MLQWRRRHCCFAKMTWNAKRSLFRTHLIGVLSLVFLFAMFLFFNHHDWLPGRAGFKENPVTYTFRGFRSTKSETNHSSLRNIWKETVPQTLRPQTATNSNNTDLSPQGVTGLENTLSANGSIYNEKGTGHPNSYHFKYIINEPEKCQEKSPFLILLIAAEPGQIEARRAIRQTWGNESLAPGIQITRIFLLGLSIKLNGYLQRAILEESRQYHDIIQQEYLDTYYNLTIKTLMGMNWVATYCPHIPYVMKTDSDMFVNTEYLINKLLKPDLPPRHNYFTGYLMRGYAPNRNKDSKWYMPPDLYPSERYPVFCSGTGYVFSGDLAEKIFKVSLGIRRLHLEDVYVGICLAKLRIDPVPPPNEFVFNHWRVSYSSCKYSHLITSHQFQPSELIKYWNHLQQNKHNACANAAKEKAGRYRHRKLH"}, "B2": {"name": "ST3Gal3: recombinant human sialyltransferase that generates α2,3-sialylated N-glycans (protein, UniProt Q11203 1-375, looked up)", "CMP-N-acetylneuraminate-beta-1 …": "MGLLVFVRNLLLALCLFLVLGFLYYSAWKLHLLQWEEDSNSVVLSFDSAGQTLGSEYDRLGFLLNLDSKLPAELATKYANFSEGACKPGYASALMTAIFPRFSKPAPMFLDDSFRKWARIREFVPPFGIKGQDNLIKAILSVTKEYRLTPALDSLRCRRCIIVGNGGVLANKSLGSRIDDYDIVVRLNSAPVKGFEKDVGSKTTLRITYPEGAMQRPEQYERDSLFVLAGFKWQDFKWLKYIVYKERVSASDGFWKSVATRVPKEPPEIRILNPYFIQEAAFTLIGLPFNNGLMGRGNIPTLGSVAVTMALHGCDEVAVAGFGYDMSTPNAPLHYYETVRMAAIKESWTHNIQREKEFLRKLVKARVITDLSSGI"}, "B3": {"name": "FUT7: α-3 fucosyltransferase strictly active on sialyllactosamine (protein, UniProt Q11130 1-342, looked up)", "Alpha-(1,3)-fucosyltransferase …": "MNNAGHGPTRRLRGLGVLAGVALLAALWLLWLLGSAPRGTPAPQPTITILVWHWPFTDQPPELPSDTCTRYGIARCHLSANRSLLASADAVVFHHRELQTRRSHLPLAQRPRGQPWVWASMESPSHTHGLSHLRGIFNWVLSYRRDSDIFVPYGRLEPHWGPSPPLPAKSRVAAWVVSNFQERQLRARLYRQLAPHLRVDVFGRANGRPLCASCLVPTVAQYRFYLSFENSQHRDYITEKFWRNALVAGTVPVVLGPPRATYEAFVPADAFVHVDDFGSARELAAFLTGMNESRYQRFFAWRDRLRVRLFTDWRERFCAICDRYPHLPRSQVYEDLEGWFQA"}, "B4": {"name": "FUT3: fucosyltransferase used for fucosylation in Le^a synthesis (protein, UniProt P21217 1-361, looked up)", "3-galactosyl-N-acetylglucosami …": "MDPLGAAKPQWPWRRCLAALLFQLLVAVCFFSYLRVSRDDATGSPRAPSGSSRQDTTPTRPTLLILLRTWPFHIPVALSRCSEMVPGTADCHITADRKVYPQADMVIVHHWDIMSNPKSRLPPSPRPQGQRWIWFNLEPPPNCQHLEALDRYFNLTMSYRSDSDIFTPYGWLEPWSGQPAHPPLNLSAKTELVAWAVSNWKPDSARVRYYQSLQAHLKVDVYGRSHKPLPKGTMMETLSRYKFYLAFENSLHPDYITEKLWRNALEAWAVPVVLGPSRSNYERFLPPDAFIHVDDFQSPKDLARYLQELDKDHARYLSYFRWRETLRPRSFSWALDFCKACWKLQQESRYQTVRSIAAWFT"}, "B5": {"name": "FUT9: recombinant α-3 fucosyltransferase strictly active on lactosamine (protein, UniProt Q9Y231 1-359, looked up)", "4-galactosyl-N-acetylglucosami …": "MTSTSKGILRPFLIVCIILGCFMACLLIYIKPTNSWIFSPMESASSVLKMKNFFSTKTDYFNETTILVWVWPFGQTFDLTSCQAMFNIQGCHLTTDRSLYNKSHAVLIHHRDISWDLTNLPQQARPPFQKWIWMNLESPTHTPQKSGIEHLFNLTLTYRRDSDIQVPYGFLTVSTNPFVFEVPSKEKLVCWVVSNWNPEHARVKYYNELSKSIEIHTYGQAFGEYVNDKNLIPTISTCKFYLSFENSIHKDYITEKLYNAFLAGSVPVVLGPSRENYENYIPADSFIHVEDYNSPSELAKYLKEVDKNNKLYLSYFNWRKDFTVNLPRFWESHACLACDHVKRHQEYKSVGNLEKWFWN"}}, "format_in_all_cases": "biochemical", "key": {"[1]": {"experiment": "Enzymatic synthesis of Le^x and sLe^x by glycan gel electrophoresis, substrate G0", "method": "(§1) FIG. 21A. Schematic view of the enzymatic steps for Le^X and sLe^X synthesis on the antibody glycan G0. The glycan short names follow that of FIG. 10. FIG. 21B Kinetic comparison of galactosylation on G0 by B4GalT1, sialyation on G2 by ST3Gal4 and ST6Gal1, and fucosylation on A2[3] by FUT7. The reaction time for B4GalT1 was 10 minutes. The reaction time for ST3Gal4, FUT7 and ST6Gal1 was 5 hours. In each case, the labeling enzyme was subject to a 3-fold serial dilution starting from 1 μg each of B4GalT1, FUT7 and ST6Gal1, and 3 μg ST3Gal4. FIG. 21C. […] Reaction time for both cases was 20 minutes. […] FIG. 21D. […] Reaction time for both cases was 20 minutes.\n(§2) For a typical labeling reaction, 1 μg to 5 μg target protein was mixed with 0.2 nmol fluorophore-conjugated GDP-fucose and 0.2 μg of a fucosyltransferase in 30μL 25 mM Tris pH 7.5, 10 mM MnCl2. The mixture was incubated at 37° C. for 30 minutes. […] To release labeled glycans from a glycoprotein, the sample was first denatured by heating at 95° C. for two minutes in the presence of 0.5% SDS and 80 mM β-mercaptoethanol and then renatured with 1% Triton X-100, and finally treated with PNGase F at 10:1 mass ratio at 37° C. for 20 minutes. To release glycans from antibody, a sample was directly treated with Endo S at 10:1 mass ratio at 37° C. for 20 minutes. All samples were separated by sodium dodecyl sulfate—polyacrylamide gel electrophoresis (SDS-PAGE) at […]. For separating labeled glycoproteins and antibodies, 4-20% gradient SDS gel was used. For separating labeled free glycans, 15% or 17% gel was used. After separation, all gels were imaged using a FluorChem M imager (ProteinSimple, Bio-Techne, Minneapolis, MN). For glycoproteins samples, the gel was also imaged with traditional methods such as silver staining or trichloroethanol (TCE) staining.\n(§3) For sLe^x synthesis, G0 was first converted to G2 by B4GalT1, then converted to A2[3] by ST3Gal4, and finally converted to A2[3]F2 (carrier of sLe^x) by FUT7 (FIG. 21A). […]"}, "[2]": {"experiment": "Le^a synthesis from FUT8-labeled G0 (G0f) quantified with response curve", "settings": "for Completion of reaction in Le^a synthesis: FIG. 22B", "method": "FIG. 22A-FIG. 22C show quantification of Le^a and its intermediate products. […] Lane 1 is labeled G0 (G0f) and lane 2 is labeled G2 (G2f). Lane 3 to 5 contain the intermediate reactions of converting G0f to the final Le^a carrying glycan A1 G1[3]F1f with the indicated enzymes. Lane 6 to lane 13 is a 2-fold serial dilution of G0f starting from 25 ng (19 pmol). The exposure time is 240 ms. The mass inputs of the serial dilution and all the band intensities were listed below the picture. FIG. 22C. The response curve of the serial dilution in FIG. 22B. The slope of the line represents the signal to mass ratio of G0f, which allows the quantification of the bands from lanes 1 to 5.\nTo evaluate the quantitative aspects of the glycan electrophoresis described in this article, a series of enzymatic reactions towards Le^a synthesis were run along with a 2-fold serial dilution of the FUT8-labeled antibody glycan G0 (G0f) (FIG. 22). Le^a was synthesized from G0f sequentially via the steps of galactosylation by B3GalT2, sialylation by ST3Gal3 and fucosylation by FUT3 (FIG. 22A). Major intermediate products of Le^a synthesis including G1[3]f, A1G1[3]f and A1 G1[3]F1f were observed (FIG. 22B). When the band intensities of the serial dilution of G0f in FIG. 22B were plotted against the masses of the glycan, a response curve with the linear coefficient of 0.9998 was obtained, with the slope of the curve representing the signal to mass ratio (FIG. 22C). The masses of the intermediates of Le^a synthesis were then calculated using the signal to mass ratio. […] In addition, the results also indicate that the sensitivity of the current method for glycan detection is below picomole level."}, "[3]": {"tested_on": "fetal bovine fetuin and asialofetuin", "experiment": "Labeling of fetuin and asialofetuin by fucosyltransferases with GDP-Cy5-Fuc", "settings": "GDP-Cy5-Fuc donor, FIG. 9A", "method": "FIG. 9A-FIG. 9B show exemplary results of probing substrate glycans of various fucosyltransferases on fetuin and asialofetuin. FIG. 9A. Probing substrate glycans of fucosyltransferases with guanosine 5′-diphosphate activated Cy5 conjugated fucose (GDP-Cy5-Fuc). […] FUT9 labeled itself (indicated by an arrow in the gel). FIG. 9B. Tolerance of Alexa-Fluor®555 (555), Alexa-Fluor®488 (488), and Cy5 by the indicated fucosyltransferases. All reactions were incubated at 37° C. for 30 minutes and then separated on SDS-PAGE and imaged with silver staining (upper panels) and fluorescent imager (lower panels). M, molecular marker.\nFor a typical labeling reaction, 1 μg to 5 μg target protein was mixed with 0.2 nmol GDP-f-Fuc and 0.2 μg of a fucosyltransferase in 30 μL buffer of 25 mM Tris pH 7.5, 10 mM MnCl2. The mixture was incubated at 37° C. for 30 minutes. The reaction was then separated by sodium dodecyl sulfate—polyacrylamide gel electrophoresis (SDS-PAGE) and the gel was directly imaged using a fluorescent imager FluorChem M ProteinSimple, Bio-Techne, Minneapolis, MN), followed by imaging with traditional protein imaging methods such as silver staining or trichloroethanol (TCE) staining.\nThe labeled samples were then separated on SDS-PAGE, followed by traditional protein gel imaging and fluorescent imaging."}, "[4]": {"experiment": "Enzymatic synthesis of sLe^x by glycan gel electrophoresis, substrate A2[3]", "method": "as §1, §2, §3"}, "[5]": {"experiment": "Enzymatic synthesis of Le^x and sLe^x by glycan gel electrophoresis, substrate G2", "method": "as §1, §2\nFor sLe^x synthesis, G0 was first converted to G2 by B4GalT1, then converted to A2[3] by ST3Gal4, and finally converted to A2[3]F2 (carrier of sLe^x) by FUT7 (FIG. 21A). During these steps, different amounts of enzymes, and multiple reaction times were applied to reveal the intermediate products.\nIntermediate products are signs for the progress of each enzymatic step."}, "[6]": {"settings": "band masses from signal to mass ratio, FIG. 22"}}, "data": [{"molecule": "β-1,4-Galactosyltransferase 1 [B4GalT1]", "values": [{"measurement": "Time for the complete conversion of G0 to G2", "setting": "[1]; FIG. 21B", "value": 10, "unit": "min"}, {"measurement": "Activity based on reaction completion", "setting": "[1]; substrate G0, completed product G2", "value": 2.3, "unit": "pmol/min/µg"}, {"measurement": "Relative activity", "setting": "[1]; substrate G0, product G2, normalized to FUT6 on sLe^x synthesis", "value": 17}]}, {"molecule": "B1", "values": [{"measurement": "Share of G0f converted to G1[3]f", "setting": "[2]; [6]", "value": 53, "unit": "%"}, {"measurement": "Share of G0f converted to G2[3]f", "setting": "[2]; [6]", "value": 9, "unit": "%"}]}, {"molecule": "B2", "values": [{"measurement": "Completion of reaction in Le^a synthesis", "setting": "[2]", "value": "almost completed"}]}, {"molecule": "B3", "values": [{"measurement": "Which of fetuin and asialofetuin the fucosyltransferase labeled", "setting": "[3]", "value": "labeled fetuin"}, {"measurement": "Activity based on reaction completion", "setting": "[4]; completed product sLe^x", "value": 0.38, "unit": "pmol/min/µg"}, {"measurement": "Relative activity", "setting": "[4]; product sLe^x, normalized to FUT6 on sLe^x synthesis", "value": 2.8}]}, {"molecule": "B4", "values": [{"measurement": "Completion of reaction in Le^a synthesis", "setting": "[2]", "value": "almost completed"}]}, {"molecule": "B5", "values": [{"measurement": "Which of fetuin and asialofetuin the fucosyltransferase labeled", "setting": "[3]", "value": "labeled asialofetuin"}, {"measurement": "Activity based on reaction completion", "setting": "[5]; substrate G2, completed product Le^x", "value": 2.3, "unit": "pmol/min/µg"}, {"measurement": "Relative activity", "setting": "[5]; substrate G2, product Le^x, normalized to FUT6 on sLe^x synthesis", "value": 17}]}]}
